Data published in patent US6645934B1, “Peptide with radio protective effect” (Eberhard-Karls-Universität Tübingen, priority 1997, dated 2003).
Bridges are numbered along the chain shown (N, C = ends).

Assays:
[1] = molecular target: TLCK-treated chymotrypsin (Bos taurus, UniProt P00766); test: Protease inhibition test, chymotrypsin; format: biochemical
Method: (§1) A batch containing 50 μl TLCK-treated chymotrypsin (0.1 mg/ml) was incubated for 10 minutes in 12.5% DMSO and 87.5% PBS with 50 μl of a solution having BBI (BBI), reduced BBI (BBI-R), or reduced and alkylated BBI (BBI-A) together with 50 μl PBS and 50 μl of the chymotrypsin substrate acetyl-A-A-P-F-pNa (0.5 mg/ml, of Bachem Heidelberg, Germany). The colored reaction product was detected at 405 nm in a spectrophotometer.
A batch without BBI (0) was run as control, and its measured value was taken as 100% chymotrypsin activity (% CH). The blank value with buffer alone is labeled “-” and indicates the cuvette and buffer solution background.

TPCK-treated trypsin = molecular target: T1, TPCK-treated trypsin (Bos taurus, UniProt P00760); test: Protease inhibition test, trypsin; format: biochemical; settings: FIG. 8
T1 sequence (P00760 24-246): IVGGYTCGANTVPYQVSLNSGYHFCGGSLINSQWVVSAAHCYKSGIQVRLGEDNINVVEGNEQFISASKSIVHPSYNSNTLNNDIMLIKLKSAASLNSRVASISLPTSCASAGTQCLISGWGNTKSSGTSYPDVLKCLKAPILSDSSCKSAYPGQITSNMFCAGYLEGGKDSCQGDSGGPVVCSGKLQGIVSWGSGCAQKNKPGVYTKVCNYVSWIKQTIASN
Method: as §1
If inhibition of the protease trypsin (see Example 4, FIG. 8) was to be determined, TPCK-treated trypsin (0.1 mg/ml) and the peptide CBZ-R-pNa (1 mg/ml) as substrate were used, and the test was otherwise performed as described.

human skin fibroblasts = test: Clonogenic assay with human skin fibroblasts under UV-B irradiation; format: cell-based; settings: UV-B radiation at 100 J/m^2, FIG. 6; for effect on clonogenic survival, further increase over that of complete BBI / effect on clonogenic survival compared with complete BBI: peptides 80 μM vs BBI 10 μM; for increase in clonogenic survival of the human skin fibroblasts compared to the untreated cells: BBI 10 μM, peptides 80 μM
Method: (§2) Normal human fibroblasts were cultivated in Dulbecco's Modified Eagles Medium (DMEM) with 10% fetal calf serum under standard conditions. At each cell passage the number of cells was counted, and the cells were seed with a density of 2×10^4/cm^2 when subcultures were set up.
(§3) For the clonogenic assay, secondary fibroblasts were trypsinated with 0.05% trypsin and 0.1 EDTA, and seed at a cell density of 50 cells per cm^2 into six-well tissue culture dishes. The cells were cultivated with 2 ml DMEM with 20% fetal calf serum per well.
(§4) After 24 hours the medium was removed and the cells were incubated for 16 hours either in additive-free control mediums (“0” in the Figures) or in medium that contained 10 μM of either BBI or a modified BBI form or a BBI fragment. The nonapeptides and heptapeptide according to the present invention (see Example 3) were used at a concentration of 80 μM.
(§5) The cells were then cultivated for a further eight days in BBI-free culture medium in order to allow colonies to form. The cells were then fixed, stained, and counted; in the Figures, “K” indicates the absolute number of clones counted.
(§6) A clone is a colony or a cell cluster resulting from the division of one cell during the eight-day cultivation period. The number of clones corresponds to the degree to which the human fibroblasts survived the irradiation. This will therefore also be referred to hereinafter as the “clonogenic survival” of the cells. If many cells die when the cells are irradiated, then only a few clones will form after eight days; if many cells survive, then many clones may be counted after eight days of cultivation. The clonogenic survival of the cells after irradiation is thus a direct indication of the radioprotective effect of the BBI product being used.
Once again a clonogenic assay was performed, using complete BBI or the four peptides P1 through P4.
In this case irradiation was performed with UV-B radiation at 100 J/m^2.

Normal human fibroblasts [2] = test: Clonogenic assay with normal human fibroblasts under ionizing radiation; format: cell-based; settings: for radioprotective effect compared with complete BBI and the other peptides (clonogenic assay): single dose of 4 Gy, peptides 80 μM, complete BBI 10 μM, FIG. 5; for influence on survival of the cells without irradiation (clonogenic assay): 0 Gy, 10 μM, 16 h incubation, FIG. 1
Method: The examination of the radioprotective effect of BBI and of modified forms of BBI was performed as a so-called clonogenic assay, which is described, for example, in K. Dittmann et al., Radiotherapy and Oncology 34 (1995), pages 137-143, and is explained briefly below.
as §2, §3, §4
This was followed by irradiation with ionizing radiation, the energy dose being either 2 or 4 gray (Gy). This energy dose corresponds to the entire converted radiation energy given in mass unit Joule/kg=(gray). A 6 MeV linear accelerator (Mevatron, Siemens) was used for irradiation.
as §5, §6

[3] = molecular target: chymotrypsin (TLCK-treated); test: cell-based or functional assay
trypsin (TPCK-treated) = test: cell-based or functional assay
Normal human fibroblasts [4] = settings: publication of Dittmann et al.; cited from earlier work
[5] = FIG. 2, control without BBI = 100% chymotrypsin activity

## Peptide P2: heptapeptide SEQ ID NO: 3, no cysteine residues, linear; acetyl and amide protective groups (Ac-ALSYPAQ-NH2)
[1]; 0.1 mM, FIG. 7
  inhibition of chymotrypsin activity: only a few percent or not at all
TPCK-treated trypsin; 0.1 mM
  inhibition of the activity of trypsin: no effect on the activity of trypsin
Human skin fibroblasts
  effect on clonogenic survival, further increase over that of complete BBI: 20%

## Peptide P1: nonapeptide SEQ ID NO: 1, terminal cysteine residues crosslinked with a disulfide bond; acetyl and amide protective groups (Ac-CALSYPAQC-NH2; disulfide 1-9; SMILES CC(=O)N[C@H]1CSSC[C@@H](C(N)=O)NC(=O)[C@H](CCC(N)=O)NC(=O)[C@H](C)NC(=O)[C@@H]2CCCN2C(=O)[C@H](Cc2ccc(O)cc2)NC(=O)[C@H](CO)NC(=O)[C@H](CC(C)C)NC(=O)[C@H](C)NC1=O)
[1]; 0.1 mM, FIG. 7
  inhibition of chymotrypsin activity: only a few percent or not at all
Normal human fibroblasts [2]
  radioprotective effect compared with complete BBI and the other peptides (clonogenic assay): even more pronounced radioprotective effect than peptides P2 (heptapeptide) and P4
TPCK-treated trypsin; 0.1 mM
  inhibition of the activity of trypsin: no effect on the activity of trypsin
Human skin fibroblasts
  effect on clonogenic survival compared with complete BBI: just as pronounced an effect as the addition of complete BBI

## Peptide P3: nonapeptide SEQ ID NO: 1, terminal cysteine residues not crosslinked; acetyl and amide protective groups (Ac-CALSYPAQC-NH2; cysteine pairing not given here)
[1]; 0.1 mM, FIG. 7
  inhibition of chymotrypsin activity: only a few percent or not at all
Normal human fibroblasts [2]
  radioprotective effect compared with complete BBI and the other peptides (clonogenic assay): even more pronounced radioprotective effect than peptides P2 (heptapeptide) and P4
TPCK-treated trypsin; 0.1 mM
  inhibition of the activity of trypsin: no effect on the activity of trypsin
Human skin fibroblasts
  effect on clonogenic survival, further increase over that of complete BBI: 20%

## Peptide P4: nonapeptide SEQ ID NO: 2 (serine to valine exchange), terminal cysteines not crosslinked; acetyl and amide protective groups (Ac-CALVYPAQC-NH2; cysteine pairing not given here)
[1]; 0.1 mM, FIG. 7
  inhibition of chymotrypsin activity: only a few percent or not at all
TPCK-treated trypsin; 0.1 mM
  inhibition of the activity of trypsin: no effect on the activity of trypsin
Human skin fibroblasts
  increase in clonogenic survival of the human skin fibroblasts compared to the untreated cells: significantly increased
  effect on clonogenic survival compared with complete BBI: less of an effect than complete BBI

B1: Bowman-Birk Protease Inhibitor (BBI), complete (protein, soybean, UniProt P01055 40-110, looked up)
chain: DDESSKPCCDQCACTKSNPPQCRCSDMRLNSCHSACKSCICALSYPAQCFCVDITDFCYEPCKPSEDDKEN
[3]
  inhibition of chymotrypsin activity (substrate acetyl-A-A-P-F-pNa, 405 nm): 80%
  inhibition of chymotrypsin activity at 0.05 mM BBI: 80%
  inhibition of chymotrypsin activity at 0.1 mM BBI: 90%
Trypsin (TPCK-treated)
  inhibition of trypsin activity at 0.05 mM BBI (substrate CBZ-R-pNa): > 90%
  inhibition of trypsin activity at 0.1 mM BBI (substrate CBZ-R-pNa): > 90%

B2: reduced BBI (BBI-R) (protein, soybean, UniProt P01055 40-110, looked up)
chain: DDESSKPCCDQCACTKSNPPQCRCSDMRLNSCHSACKSCICALSYPAQCFCVDITDFCYEPCKPSEDDKEN
modifications: pretreated with dithiothreitol (DTT) so that all the disulfide bonds in the BBI were cleaved (cysteines reduced)
[3]
  inhibition of chymotrypsin activity (substrate acetyl-A-A-P-F-pNa, 405 nm): 30%

B3: BBI-R: complete BBI pretreated with the reducing agent dithiothreitol (DTT), so that all the disulfide bonds were cleaved (protein)
chain: DDESSKPCCDQCACTKSNPPQCRCSDMRLNSCHSACKSCICALSYPAQCFCVDITDFCYEPCKPSEDDKEN
modifications: cyclised or stapled
notes: complete BBI pretreated with the reducing agent dithiothreitol (DTT), so that all the disulfide bonds were cleaved
[1]; [5]
  inhibition of chymotrypsin activity: about 30%
Normal human fibroblasts [2]
  influence on survival of the cells without irradiation (clonogenic assay): does not influence survival of the cells within experimental error

B4: BBI-A: BBI first reduced, cysteine residues then alkylated with iodoacetamide to prevent reoxidation (protein)
chain: DDESSKPCCDQCACTKSNPPQCRCSDMRLNSCHSACKSCICALSYPAQCFCVDITDFCYEPCKPSEDDKEN
[1]; [5]
  inhibition of chymotrypsin activity: no longer capable of inhibiting chymotrypsin activity
Normal human fibroblasts [2]
  influence on survival of the cells without irradiation (clonogenic assay): does not influence survival of the cells within experimental error

B5: Bowman-Birk Protease Inhibitor (protein)
chain: DDESSKPCCDQCACTKSNPPQCRCSDMRLNSCHSACKSCICALSYPAQCFCVDITDFCYEPCKPSEDDKEN
notes: complete BBI (from Sigma Biochemicals)
[1]; 0.05 mM, FIG. 7
  inhibition of chymotrypsin activity: 80%
[1]; 0.1 mM, FIG. 7
  inhibition of chymotrypsin activity: 90%
[1]; [5]
  inhibition of chymotrypsin activity: 80%
Normal human fibroblasts [2]
  influence on survival of the cells without irradiation (clonogenic assay): does not influence survival of the cells within experimental error
Normal human fibroblasts [4]
  radiation-induced mortality of cultivated human fibroblasts: decreases the radiation-induced mortality
TPCK-treated trypsin; 0.05 mM
  inhibition of the activity of trypsin: more than 90%
TPCK-treated trypsin; 0.1 mM
  inhibition of the activity of trypsin: more than 90%
Human skin fibroblasts
  increase in clonogenic survival of the human skin fibroblasts compared to the untreated cells: approximately 40%
